Experimental data from the PETadex activity labels (doi:10.1016/j.eti.2025.104587).

Experiments:
[1] = substrate: PET; test: Proxy for plastic degradation [Weight/mass loss]; details: pH 7.5; 0 h
[2] = substrate: pNPB; test: Proxy for plastic degradation [p-nitrophenol (pNP) release] (% relative activity)

B1: unnamed (protein)
chain: MKSVLARARLVAAATAMLAFAAWALVSAAPAVEAQSNPYQRGPNPTRSALTADGPFSVSTYSVSGLSVSGFGGGVIYYPTGTTLTFGGIAMSPGYTASSSSLAWLGRRLASHGFVVLVIDTITRLDFPDSRASQLSAALNYLRTSSPSTVRARLDGTRLAVAGHSMGGGGTLRVSEQLPSLKAGVPLTPWHTDKTFNTSVPQLIVGAENDSVAPVSQHAIPFYQNLPSTTPKVYVELNNASHFAPNTSNATISVYTISWMKLWVDNDTRYRPFLCNVSDASLSDFRSNNRHCQ
Proxy for plastic degradation [1]: 0%
Proxy for plastic degradation ([2]; pH 4): 0
Proxy for plastic degradation ([2]; pH 5): 34.5
Proxy for plastic degradation ([2]; pH 6.5): 75
Proxy for plastic degradation ([2]; pH 7): 86.5
Proxy for plastic degradation ([2]; pH 7.5): 99.5
Proxy for plastic degradation ([2]; pH 7.5, 30 °C): 39.5
Proxy for plastic degradation ([2]; pH 7.5, 40 °C): 41
Proxy for plastic degradation ([2]; pH 7.5, 50 °C): 48
Proxy for plastic degradation ([2]; pH 7.5, 60 °C): 72
Proxy for plastic degradation ([2]; pH 7.5, 70 °C): 99
Proxy for plastic degradation ([2]; pH 7.5, 80 °C): 69.5
Proxy for plastic degradation ([2]; pH 9): 60.5
Proxy for plastic degradation ([2]; pH 10): 45.5
